According to paper PMC10164912, “Exploration of O-GlcNAc transferase glycosylation sites reveals a target sequence compositional bias” (The Journal of Biological Chemistry, 2023):

T1: TPR region of OGT (OGT-TPR, aa 2-474) not fused to SUMO (human, UniProt O15294 2-474)
T1 construct: O-GlcNAc transferase (OGT), human ncOGT (longest isoform, 1-1046, 13 TPR repeats), tetratricopeptide repeat region, residues 2-474; Unlabelled; this was not measured here; also called OGT-TPR with the SUMO tag removed
T1 sequence (looked up): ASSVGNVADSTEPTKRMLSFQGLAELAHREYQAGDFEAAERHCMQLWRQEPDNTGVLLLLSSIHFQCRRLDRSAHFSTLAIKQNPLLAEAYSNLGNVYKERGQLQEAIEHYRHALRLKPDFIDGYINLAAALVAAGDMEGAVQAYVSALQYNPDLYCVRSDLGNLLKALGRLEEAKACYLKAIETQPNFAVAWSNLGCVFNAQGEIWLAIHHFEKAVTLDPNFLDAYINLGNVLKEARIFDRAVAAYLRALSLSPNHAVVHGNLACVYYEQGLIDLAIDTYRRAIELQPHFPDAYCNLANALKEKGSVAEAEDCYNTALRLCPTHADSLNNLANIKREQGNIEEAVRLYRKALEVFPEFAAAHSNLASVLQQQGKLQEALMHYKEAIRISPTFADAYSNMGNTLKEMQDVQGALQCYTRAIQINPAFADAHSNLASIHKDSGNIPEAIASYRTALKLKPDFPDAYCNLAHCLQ

B1: Mut-F FUS N-terminal low-complexity region (LCRN), aa 1-214 (domain or fragment, human, UniProt P35637 1-214, looked up)
chain: MASNDYTQQATQSYGAYPTQPGQGYSQQSSTPYAQASYSTYSPSTTTSAYGQSSYSSYGQSQNTGYATTSTPQAYPSTAPYATSPSSQSSYGQQSSYPAYTQQPAPTTTSASYATSSQSSSYGQPQSGSYSQQPSYGGQQQSYGQQQSYNPPQGYGQQNQYNSSSGGGGGGGGGGNYGQDQSSMSSGGGSGGGYGNQDQSGGGGSGGYGQQDRG
notes: FUS (fused in sarcoma), human, N-terminal low-complexity region, aa 1-214, with the combined mutations of Mut-A, Mut-B and Mut-C; 15N-labelled for NMR; also called FUS Mut-F; Mut-F FUS LCRN
B2: WT FUS N-terminal low-complexity region (LCRN), aa 1-214 (domain or fragment, human, UniProt P35637 1-214, looked up)
chain: MASNDYTQQATQSYGAYPTQPGQGYSQQSSQPYGQQSYSGYSQSTDTSGYGQSSYSSYGQSQNTGYGTQSTPQGYGSTGGYGSSQSSQSSYGQQSSYPGYGQQPAPSSTSGSYGSSSQSSSYGQPQSGSYSQQPSYGGQQQSYGQQQSYNPPQGYGQQNQYNSSSGGGGGGGGGGNYGQDQSSMSSGGGSGGGYGNQDQSGGGGSGGYGQQDRG
notes: FUS (fused in sarcoma), human, N-terminal low-complexity region, aa 1-214; 15N-labelled for NMR; also called WT FUS LCRN; FUS LCRN
B3: TPR region of OGT (OGT-TPR, aa 2-474) fused to a SUMO tag (domain or fragment, human, UniProt O15294 2-474, looked up)
chain: T1 sequence (looked up)
notes: O-GlcNAc transferase (OGT), human ncOGT (longest isoform, 1-1046, 13 TPR repeats), tetratricopeptide repeat region, residues 2-474; Unlabelled; this was not measured here; also called SUMO-OGT-TPR; SUMO-fused OGT-TPR

Key:
Conditions in all cases: both partners purified
[1] = molecular target: T1, TPR region of OGT (OGT-TPR, aa 2-474) …; experiment: NMR titration; 1H-15N HSQC of 15N-labelled FUS LCRN (WT or Mut-F) without and with OGT-TPR whose SUMO tag was removed; the samples with OGT-TPR phase separated, no quantitative comparison
[2] = molecular target: B1; experiment: NMR titration; 1H-15N HSQC of 20 uM 15N-labelled FUS LCRN (WT or Mut-F) without and with 32 uM unlabelled SUMO-OGT-TPR; 600 MHz, 5 °C, 40 mM KPO4, 125 mM NaCl, 0.5 mM EDTA, 0.5 mM benzamidine, 5 mM DTT, 10% D2O, pH 7.2; peak intensity ratios plus OGT-TPR/apo
[3] = molecular target: B2; experiment: as above

binding result [1]	average peak intensity ratio (plus OGT-TPR/apo) [2]	average peak intensity ratio (plus OGT-TPR/apo) [3]	Binder
binds			B1
binds			B2
	0.36 ± 0.22	0.48	B3
